Data taken from article PMC4993455 (PLoS ONE, 2016).

B1: HA-PDRG1 (natural protein)
chain: not shown
notes: residues between the HA tag and PDRG1; rat PDRG1, full ORF (402 bp); also called pHA-PDRG1; HA-tagged PDRG1; source: CHO, HEK 293T or COS-7 cells, transiently transfected; in total lysate, nuclear or cytosolic fractions; not shown: HA, N-terminal, kept
B2: FLAG-MATα1 (enzyme)
chain: not shown
notes: rat MATα1, pFLAG-MAT containing the rat Mat1a ORF; also called pFLAG-MAT; source: CHO, HEK 293T or COS-7 cells, transiently transfected; in total lysate, nuclear or cytosolic fractions
B3: GST-PDRG1 (natural protein)
chain: not shown
notes: 9 amino acid linker between GST and PDRG1; rat PDRG1, full ORF (402 bp) in pGEX-5X-1; also called pGEX-PDRG1; tagged-PDRG1; source: E. coli BL21(DE3) Codon Plus; soluble extract loaded on Glutathione-Sepharose (pull-down); purified on Glutathione-Sepharose 4B, eluted with 20 mM GSH (gel filtration, activity); not shown: GST, N-terminal, kept

Columns and labels:
[1] = biological target: the molecule itself; assay: SEC; analytical gel filtration of nuclear fractions (100 μl) of HEK 293T cells overexpressing HA-PDRG1, FLAG-MATα1 or both on Superose 12 10/300 GL; fractions analysed by dot-blot
[2] = biological target: T1, recombinant methionine adenosyltransferase α1 (MATα1) (rat, UniProt P13444 1-397); assay: SEC; equimolar purified recombinant MATα1 or MATα2 and GST-PDRG1 incubated 1 hour at 4°C, then Biogel A column (1.5 x 90 cm) in 50 mM Tris/HCl pH 8, 10 mM MgSO4, 50 mM KCl at 4°C; both proteins detected in the pooled activity peaks by Coomassie staining and/or western blotting; conditions: both partners purified
T1 construct: rat MATα1, pSSRL-T7N containing the rat Mat1a ORF; also called pSSRL-T7N; MATα1 homo-oligomers; source: E. coli BL21(DE3) Codon Plus; soluble extract (pull-down)
T1 sequence (P13444 whole entry): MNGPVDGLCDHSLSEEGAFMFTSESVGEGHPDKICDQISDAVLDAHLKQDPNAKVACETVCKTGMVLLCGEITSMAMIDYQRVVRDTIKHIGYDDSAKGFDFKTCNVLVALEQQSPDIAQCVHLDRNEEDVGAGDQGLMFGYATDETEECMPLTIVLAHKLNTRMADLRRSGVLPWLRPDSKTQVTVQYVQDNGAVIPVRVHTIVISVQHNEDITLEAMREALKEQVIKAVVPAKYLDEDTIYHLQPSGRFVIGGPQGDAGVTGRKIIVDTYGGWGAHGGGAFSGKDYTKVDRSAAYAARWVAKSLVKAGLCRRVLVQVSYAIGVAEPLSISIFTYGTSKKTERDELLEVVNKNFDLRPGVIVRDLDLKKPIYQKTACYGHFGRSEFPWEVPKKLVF

Binder	stoichiometry N [1]	binding result [2]
B1	6	–
B2	4	–
B3	–	binds
